Experimental data: US20140087995A1 (published 2014)
Numbered stars: 1 amine (or outer) side, 2 acyl side, 3 side chain; on linkers, the order of the positions; unused ones are H or OH. Bridge positions count the residues as written; N and C are the ends. Side chains are listed from the residue outwards. Ends that are not written are not given here. * marks the point of attachment. C20 diacid = O=C(O)CCCCCCCCCCCCCCCCCCC(=O)*; γGlu = O=C(O)[C@H](CCC(=O)[*:2])N[*:1]; AEEA = NCCOCCOCC(=O)O

T1: rat amylin receptor (rat calcitonin receptor + rat RAMP 3) (rat, UniProt P32214 25-516; Q9JJ73 23-147)
T1 construct: whole, on cells; Used as membranes prepared from BHK tk'ts 13 cells transiently transfected with rat calcitonin receptor and rat RAMP 3 (Assay VI); also called rAmylin-R; rat amylin 3(a) receptor
T1 sequence (looked up) 1: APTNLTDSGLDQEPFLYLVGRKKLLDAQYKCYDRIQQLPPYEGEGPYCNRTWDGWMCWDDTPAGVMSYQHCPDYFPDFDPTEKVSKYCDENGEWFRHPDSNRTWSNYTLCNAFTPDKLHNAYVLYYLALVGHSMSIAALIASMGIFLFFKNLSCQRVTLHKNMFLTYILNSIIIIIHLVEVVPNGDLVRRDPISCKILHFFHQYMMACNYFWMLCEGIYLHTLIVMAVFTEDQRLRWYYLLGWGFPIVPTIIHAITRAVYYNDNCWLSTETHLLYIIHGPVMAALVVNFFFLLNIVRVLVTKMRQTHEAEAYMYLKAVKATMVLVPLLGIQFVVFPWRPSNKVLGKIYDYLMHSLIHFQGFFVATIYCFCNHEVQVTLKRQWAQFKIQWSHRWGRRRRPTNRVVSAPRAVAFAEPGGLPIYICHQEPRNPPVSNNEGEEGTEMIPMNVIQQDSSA
T1 sequence (looked up) 2: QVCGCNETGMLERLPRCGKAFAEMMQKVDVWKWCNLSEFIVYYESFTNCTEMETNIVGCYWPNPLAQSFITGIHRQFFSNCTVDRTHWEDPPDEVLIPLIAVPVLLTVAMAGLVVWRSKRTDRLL

T2: human calcitonin receptor (human, UniProt P30988 25-474)
T2 construct: whole, on cells; Used as membranes prepared from a BHK tk'ts 13 cell line stably transfected with the human calcitonin receptor (Assay VII); also called hCTR; hCT
T2 sequence (looked up): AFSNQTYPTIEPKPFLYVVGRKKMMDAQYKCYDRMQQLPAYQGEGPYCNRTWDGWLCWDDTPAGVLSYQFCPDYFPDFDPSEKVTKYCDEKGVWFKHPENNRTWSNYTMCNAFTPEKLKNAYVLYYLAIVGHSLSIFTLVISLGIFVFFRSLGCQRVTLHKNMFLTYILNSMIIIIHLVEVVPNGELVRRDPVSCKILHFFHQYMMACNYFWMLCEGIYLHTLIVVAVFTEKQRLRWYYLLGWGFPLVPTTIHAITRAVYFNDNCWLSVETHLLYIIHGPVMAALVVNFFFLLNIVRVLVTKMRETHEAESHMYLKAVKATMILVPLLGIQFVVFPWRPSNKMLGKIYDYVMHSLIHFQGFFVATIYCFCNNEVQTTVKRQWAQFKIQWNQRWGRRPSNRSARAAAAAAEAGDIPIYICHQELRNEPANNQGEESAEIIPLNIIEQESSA

T3: rat calcitonin receptor (rat, UniProt P32214 25-516)
T3 construct: whole, on cells; Used as membranes prepared from BHK tk'ts 13 cells transiently transfected with the rat calcitonin receptor (Assay VIII); also called rCTR; rat calcitonin (a) receptor
T3 sequence (looked up): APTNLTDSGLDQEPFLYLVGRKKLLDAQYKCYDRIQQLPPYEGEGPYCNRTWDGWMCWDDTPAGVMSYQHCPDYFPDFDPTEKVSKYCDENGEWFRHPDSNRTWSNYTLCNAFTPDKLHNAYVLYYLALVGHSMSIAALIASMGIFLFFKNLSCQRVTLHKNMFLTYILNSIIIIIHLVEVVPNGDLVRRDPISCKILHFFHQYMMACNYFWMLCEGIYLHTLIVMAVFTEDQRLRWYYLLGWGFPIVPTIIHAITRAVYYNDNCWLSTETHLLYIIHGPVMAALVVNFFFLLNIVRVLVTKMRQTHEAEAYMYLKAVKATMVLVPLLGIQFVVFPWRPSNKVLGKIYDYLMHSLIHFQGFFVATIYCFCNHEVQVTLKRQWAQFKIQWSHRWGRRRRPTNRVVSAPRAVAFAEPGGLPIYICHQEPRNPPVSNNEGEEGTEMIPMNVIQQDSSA


Key:
[1] = target: T1, rat amylin receptor (rat calcitonin …); assay: SPA competition with 125I-rat amylin, membranes of BHK cells with rat CTR + rat RAMP3 (Assay VI)
[2] = target: T2, human calcitonin receptor; assay: IC50 on human CTR divided by IC50 on human amylin receptor (Assays VII/V)
Method in brief: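 Competition binding by SPA with cell membranes (35 ng/μL) and SPA beads in 50 mM Hepes pH 7.4 with 1 mM CaCl2, 5 mM MgCl2, 0.1% OA and 0.02% Tween20. Incubated 120 min at 25 °C with shaking, then counted.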

[3] = target: T3, rat calcitonin receptor; assay: SPA competition with 125I-calcitonin, membranes of BHK cells with rat CTR (Assay VIII)
[4] = target: T3, rat calcitonin receptor; assay: IC50 on rat CTR divided by IC50 on rat amylin receptor (Assays VIII/VI)

| Binder | IC50 [1] [nM] | Ratio hCT/hAmylin binding [2] | IC50 [3] [nM] | Ratio rCT/rAmylin binding [4] |
| --- | --- | --- | --- | --- |
| K([γGlu-C20 diacid])CNTATCATQRLARFLRHSSPNFGAIPSSTPVGSNTY-NH2 (disulfide 2-7; N-terminus assumed; SMILES CC[C@H](C)[C@H](NC(=O)[C@H](C)NC(=O)CNC(=O)[C@H](Cc1ccccc1)NC(=O)[C@H](CC(N)=O)NC(=O)[C@@H]1CCCN1C(=O)[C@H](CO)NC(=O)[C@H](CO)NC(=O)[C@H](Cc1c[nH]cn1)NC(=O)[C@H](CCCNC(=N)N)NC(=O)[C@H](CC(C)C)NC(=O)[C@H](Cc1ccccc1)NC(=O)[C@H](CCCNC(=N)N)NC(=O)[C@H](C)NC(=O)[C@H](CC(C)C)NC(=O)[C@H](CCCNC(=N)N)NC(=O)[C@H](CCC(N)=O)NC(=O)[C@@H](NC(=O)[C@H](C)NC(=O)[C@@H]1CSSC[C@H](NC(=O)[C@@H](N)CCCCNC(=O)CC[C@H](NC(=O)CCCCCCCCCCCCCCCCCCC(=O)O)C(=O)O)C(=O)N[C@@H](CC(N)=O)C(=O)N[C@@H]([C@@H](C)O)C(=O)N[C@@H](C)C(=O)N[C@@H]([C@@H](C)O)C(=O)N1)[C@@H](C)O)C(=O)N1CCC[C@H]1C(=O)N[C@@H](CO)C(=O)N[C@@H](CO)C(=O)N[C@H](C(=O)N1CCC[C@H]1C(=O)N[C@H](C(=O)NCC(=O)N[C@@H](CO)C(=O)N[C@@H](CC(N)=O)C(=O)N[C@H](C(=O)N[C@@H](Cc1ccc(O)cc1)C(N)=O)[C@@H](C)O)C(C)C)[C@@H](C)O, Analogue of human amylin; also called compound 63) | 3.48 | 157 | 124 | 35.6 |
| K([AEEA-γGlu-C20 diacid])CNTATCATQRLATFLRHSSPNFGAIPSSTPVGSNTY-NH2 (disulfide 2-7; N-terminus assumed; SMILES CC[C@H](C)[C@H](NC(=O)[C@H](C)NC(=O)CNC(=O)[C@H](Cc1ccccc1)NC(=O)[C@H](CC(N)=O)NC(=O)[C@@H]1CCCN1C(=O)[C@H](CO)NC(=O)[C@H](CO)NC(=O)[C@H](Cc1c[nH]cn1)NC(=O)[C@H](CCCNC(=N)N)NC(=O)[C@H](CC(C)C)NC(=O)[C@H](Cc1ccccc1)NC(=O)[C@@H](NC(=O)[C@H](C)NC(=O)[C@H](CC(C)C)NC(=O)[C@H](CCCNC(=N)N)NC(=O)[C@H](CCC(N)=O)NC(=O)[C@@H](NC(=O)[C@H](C)NC(=O)[C@@H]1CSSC[C@H](NC(=O)[C@@H](N)CCCCNC(=O)COCCOCCNC(=O)CC[C@H](NC(=O)CCCCCCCCCCCCCCCCCCC(=O)O)C(=O)O)C(=O)N[C@@H](CC(N)=O)C(=O)N[C@@H]([C@@H](C)O)C(=O)N[C@@H](C)C(=O)N[C@@H]([C@@H](C)O)C(=O)N1)[C@@H](C)O)[C@@H](C)O)C(=O)N1CCC[C@H]1C(=O)N[C@@H](CO)C(=O)N[C@@H](CO)C(=O)N[C@H](C(=O)N1CCC[C@H]1C(=O)N[C@H](C(=O)NCC(=O)N[C@@H](CO)C(=O)N[C@@H](CC(N)=O)C(=O)N[C@H](C(=O)N[C@@H](Cc1ccc(O)cc1)C(N)=O)[C@@H](C)O)C(C)C)[C@@H](C)O, Analogue of human amylin; also called compound 75) | 4.03 | 91.4 | 442 | 110 |

The next binders have a lower IC50 [1] than those just listed; values first:

| IC50 [1] [nM] | Ratio hCT/hAmylin binding [2] | IC50 [3] [nM] | Ratio rCT/rAmylin binding [4] | Binder |
| --- | --- | --- | --- | --- |
| 0.283 | 51.7 | 50.3 | 178 | K([AEEA-γGlu-C20 diacid])CNTATCATQRLASFLRHSSPNFGAIPSSTPVGSNTY-NH2 (disulfide 2-7; N-terminus assumed; SMILES CC[C@H](C)[C@H](NC(=O)[C@H](C)NC(=O)CNC(=O)[C@H](Cc1ccccc1)NC(=O)[C@H](CC(N)=O)NC(=O)[C@@H]1CCCN1C(=O)[C@H](CO)NC(=O)[C@H](CO)NC(=O)[C@H](Cc1c[nH]cn1)NC(=O)[C@H](CCCNC(=N)N)NC(=O)[C@H](CC(C)C)NC(=O)[C@H](Cc1ccccc1)NC(=O)[C@H](CO)NC(=O)[C@H](C)NC(=O)[C@H](CC(C)C)NC(=O)[C@H](CCCNC(=N)N)NC(=O)[C@H](CCC(N)=O)NC(=O)[C@@H](NC(=O)[C@H](C)NC(=O)[C@@H]1CSSC[C@H](NC(=O)[C@@H](N)CCCCNC(=O)COCCOCCNC(=O)CC[C@H](NC(=O)CCCCCCCCCCCCCCCCCCC(=O)O)C(=O)O)C(=O)N[C@@H](CC(N)=O)C(=O)N[C@@H]([C@@H](C)O)C(=O)N[C@@H](C)C(=O)N[C@@H]([C@@H](C)O)C(=O)N1)[C@@H](C)O)C(=O)N1CCC[C@H]1C(=O)N[C@@H](CO)C(=O)N[C@@H](CO)C(=O)N[C@H](C(=O)N1CCC[C@H]1C(=O)N[C@H](C(=O)NCC(=O)N[C@@H](CO)C(=O)N[C@@H](CC(N)=O)C(=O)N[C@H](C(=O)N[C@@H](Cc1ccc(O)cc1)C(N)=O)[C@@H](C)O)C(C)C)[C@@H](C)O, Analogue of human amylin; also called compound 73) |
| 1.16 | 82.4 | 108 | 93.2 | K([γGlu-C20 diacid])CNTATCATQRLARFLRHSSPNFGAIPSSTNVGPNTY-NH2 (disulfide 2-7; N-terminus assumed; SMILES CC[C@H](C)[C@H](NC(=O)[C@H](C)NC(=O)CNC(=O)[C@H](Cc1ccccc1)NC(=O)[C@H](CC(N)=O)NC(=O)[C@@H]1CCCN1C(=O)[C@H](CO)NC(=O)[C@H](CO)NC(=O)[C@H](Cc1c[nH]cn1)NC(=O)[C@H](CCCNC(=N)N)NC(=O)[C@H](CC(C)C)NC(=O)[C@H](Cc1ccccc1)NC(=O)[C@H](CCCNC(=N)N)NC(=O)[C@H](C)NC(=O)[C@H](CC(C)C)NC(=O)[C@H](CCCNC(=N)N)NC(=O)[C@H](CCC(N)=O)NC(=O)[C@@H](NC(=O)[C@H](C)NC(=O)[C@@H]1CSSC[C@H](NC(=O)[C@@H](N)CCCCNC(=O)CC[C@H](NC(=O)CCCCCCCCCCCCCCCCCCC(=O)O)C(=O)O)C(=O)N[C@@H](CC(N)=O)C(=O)N[C@@H]([C@@H](C)O)C(=O)N[C@@H](C)C(=O)N[C@@H]([C@@H](C)O)C(=O)N1)[C@@H](C)O)C(=O)N1CCC[C@H]1C(=O)N[C@@H](CO)C(=O)N[C@@H](CO)C(=O)N[C@H](C(=O)N[C@@H](CC(N)=O)C(=O)N[C@H](C(=O)NCC(=O)N1CCC[C@H]1C(=O)N[C@@H](CC(N)=O)C(=O)N[C@H](C(=O)N[C@@H](Cc1ccc(O)cc1)C(N)=O)[C@@H](C)O)C(C)C)[C@@H](C)O, Analogue of human amylin; also called compound 65) |
